Among the data in paper PMC9105409 (2022) are αKm (affinity of holo-CRABP1, with atRA bound, for CYP26A1), from a global fit of the protein-protein interaction model (Equation 3) to 4-OH-atRA formation velocities, αKm (affinity of holo-CRABP2, with atRA bound, for CYP26A1), from a global fit of the protein-protein interaction model (Equation 3) to 4-OH-atRA formation velocities and Ki values, retold here.

For orientation: Ki means the dissociation constant of the complex between target and ligand, obtained from inhibition or displacement. A low value points to higher affinity.

Assay [1] deals with T1, Recombinant CYP26A1 (UniProt O43174).
T1 sequence: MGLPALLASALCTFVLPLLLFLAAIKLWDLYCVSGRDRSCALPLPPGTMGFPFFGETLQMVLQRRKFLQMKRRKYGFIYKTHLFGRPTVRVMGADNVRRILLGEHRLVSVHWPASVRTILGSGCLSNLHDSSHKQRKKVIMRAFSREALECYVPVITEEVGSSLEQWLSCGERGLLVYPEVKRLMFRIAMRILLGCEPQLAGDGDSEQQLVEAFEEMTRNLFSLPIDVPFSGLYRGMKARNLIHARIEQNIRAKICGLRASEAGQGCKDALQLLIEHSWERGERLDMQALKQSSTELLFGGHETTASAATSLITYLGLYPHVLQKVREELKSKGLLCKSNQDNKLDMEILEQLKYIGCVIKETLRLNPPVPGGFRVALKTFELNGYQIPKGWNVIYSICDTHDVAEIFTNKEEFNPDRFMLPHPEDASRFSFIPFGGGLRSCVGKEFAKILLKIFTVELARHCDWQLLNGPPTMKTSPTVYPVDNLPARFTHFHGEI

Assay [2] addresses T2, CYP26A1 (Homo sapiens, UniProt O43174).
T2 chain: T1 sequence
The assay is described as follows: enzyme inhibition kinetics.

In the case of “Cellular retinoic acid binding protein 1 (CRABP1) (from UniProt P29762 1-137) (natural protein)”, the αKm (affinity of holo-CRABP1, with atRA bound, for CYP26A1), from a global fit of the protein-protein interaction model (Equation 3) to 4-OH-atRA formation velocities in assay [1] came to 0.99 nM.

B1: CRABP2 (protein)
chain: MPNFSGNWKIIRSENFEELLKVLGVNVMLRKIAVAAASKPAVEIKQEGDTFYIKTSTTVRTTEINFKVGEEFEEQTVDGRPCKSLVKWESENKMVCEQKLLKGEGPKTSWTRELTNDGELILTMTADDVVCTRVYVRE
Take B1: the αKm (affinity of holo-CRABP2, with atRA bound, for CYP26A1), from a global fit of the protein-protein interaction model (Equation 3) to 4-OH-atRA formation velocities in assay [1] worked out at 0.75 nM. Moreover, affinity in assay [2] was put at a Ki of 0.53 nM.
